{
  "source": "paper PMC3635990",
  "about": "“Vpu Binds Directly to Tetherin and Displaces It from Nascent Virions” (PLoS Pathogens, 2013)",
  "proteins": {"B1": {"name": "Tetherin^CC/SS-I46C-HA (natural protein)", "chain": "MASTSYDYSRVPMEDGDKRSKLLLGIGILVLLIIVILGVPLIIFTCKANSEACRDGLRAVMECRNVTHLLQQELTEAQKGFQDVEAQAATCNHTVMALMASLDAEKAQGQKKVEELEGEITTLNHKLQDASAEVERLRRENQVLSVRIADKKYYPSSQDSS", "notes": "Tetherin (Bst2/CD317/HM1.24), human; also called TetherinI46C; Teth^CC/SS-I46C-HA; source: HEK293T, co-transfected, in cells and lysate"}, "B2": {"name": "Tetherin^CC/SS-T45C-HA (natural protein)", "chain": "B1 chain with T45C, C46I", "notes": "Tetherin (Bst2/CD317/HM1.24), human; also called TetherinT45C; source: HEK293T, co-transfected, in cells and lysate"}},
  "target": "the molecule itself",
  "test": "cross-linking; unfractionated whole cell lysates of the oxidised, co-transfected 293T cells of Figure 1B; non-reducing SDS-PAGE (Bio-Rad), Western blot; monomer to dimer",
  "note": "Where a chain is given by its changes, count along the chain named. Numbers in names are those of the source.",
  "data": [
    {"protein": "B1", "values": [
      {"measurement": "stoichiometry N", "value": 2}
    ]},
    {"protein": "B2", "values": [
      {"measurement": "stoichiometry N", "value": 2}
    ]}
  ]
}
